Source: US20220016205A1, “METHODS OF OVERCOMING RESISTANCE TO IMMUNE CHECKPOINT INHIBITORS” (Board of Regents, The University of Texas System, priority 2018, published 2022)

Tests used:
RAW 264.7 cells [1] = test: Immunofluorescence of p38a and SMAD1/5/9 phosphorylation in RAW 264.7 cells treated with BMP7 or BMP7 plus follistatin; type: cell-based, murine; conditions: 24 hours (FIG. 2K)
Procedure: Immunofluorescence analysis. RAW 264.7 cells were counted with a hemocytometer (0.4% Trypan blue solution), diluted to 200,000, and seeded in 4-well culture slides (Lab-Tek, Catalog #154917), and allowed to attach overnight. Cells were treated with 250 ng BMP7 (R&D Systems, Catalog #5666-BP-010) or follistatin (R&D Systems, Catalog #769-FS-025) and incubated for 24 h, and then fixed with 1% paraformaldehyde for 10 minutes, followed by a 10-minute wash in 70% ethanol at room temperature. Cells were then treated with 0.1% NP40 in PBS for 20 minutes, washed in PBS four times, and then blocked with 5% bovine serum albumin in PBS for 30 minutes. Cells were then incubated with p38a MAPK (L53F8) (Cell Signaling, Catalog #9228) and Phospho-Smad1 (Ser463/465), Smad5 (Ser463/465), and Smad9 (Ser465/467) (D5B10) (Cell Signaling, Catalog #13820) in 5% bovine serum albumin in PBS overnight according to the manufacturer's protocol. […] Slides were examined with a fluorescence microscope (Leica, Buffalo Grove, Ill.), and images were captured by a charge-coupled device camera and imported into the Advanced Spot Image analysis software package.

RAW 264.7 cells [2] = test: qPCR of p38α, IL-1α, IL-1β, TNF-α, RANTES in RAW 264.7 cells treated with BMP7 or BMP7 plus follistatin; type: cell-based, murine; conditions: BMP7 plus follistatin versus BMP7 only, 24 or 48 hours (FIG. 3H)
Source text: (§1) Quantitative polymerase chain reaction (qPCR). Total RNA was isolated from cells and tumors with Triazol (Life Technologies) according to the manufacturer's protocol. For studies of BMP7, p38α, IL-1α, IL-1β, TNF-α, RANTES, IL-2, and IFN-γ expression, mRNA was retrotranscribed with the iScript™ gDNA Clear cDNA Synthesis Kit (BioRad) and analyzed by qPCR using SYBR Green (Life Technologies) with specific primers according to the manufacturer's protocol. The comparative Ct method was used to calculate the relative abundance of mRNAs compared with ACTB (beta-actin) expression for cancer cells or CD45 expression for immune cells.
(§2) Co-culture experiments and treatments. Viable cells were counted with a hemocytometer (0.4% Trypan blue solution) and diluted to 40,000 cells per well in 24-wells plates. Cells from 344SQP, 344SQR, 344SQ ctrl, or 344SQ-shBMP7 tumors were seeded at the top inserts (24-mm Transwell with 0.4-μm pore polycarbonate membrane insert, Sigma-Aldrich), and RAW 264.7 or CD4^+ T cells were seeded at the bottom of the transwell system. […] RNA was then isolated from RAW 264.7 or CD4^+ T cells and analyzed for p38α, IL-1α, IL-1β, TNF-α, RANTES, IL-2 and IFN-γ expression with qPCR.

peritoneal macrophages [3] = test: qPCR of p38α, IL-1α, IL-1β, TNF-α, RANTES in peritoneal macrophages treated with BMP7 or BMP7 plus follistatin; type: cell-based, mouse; conditions: BMP7 plus follistatin compared with BMP7 only
Source text: as §1, §2

peritoneal macrophages [4] = test: qPCR in peritoneal macrophages co-cultured with 344SQR cells (transwell) with follistatin or K02288; type: cell-based, mouse; conditions: 344SQR co-culture plus follistatin versus 344SQR co-culture only, 24 or 48 hours (FIG. 3J)
CD4^+ T cells [5] = test: qPCR of p38α, IFN-γ, IL-2 in activated CD4+ T cells treated with BMP7 or BMP7 plus follistatin; type: cell-based, mouse; conditions: BMP7 plus follistatin compared with BMP7 only, 24 hours (FIG. 4F)
Source text: as §1
as §2, with “system. CD4^+ T cells were isolated from splenocytes by using Dynabeads Untouched Mouse CD4 Cells Kit (Thermo Fisher Scientific—Life Technologies, Catalog #11416D) and activated with LEAF purified anti-mouse CD3c antibody (5 μg/mL) and LEAF purified anti-mouse CD28 antibody (1 μg/mL) (Biolegend).” for “system.”
(§3) Next, CD4^+ T cells were co-cultured with 344SQP or 344SQR cells, and 344SQR ctrl or 344SQR shBMP7 cells, and the expression of p38α, IFN-γ, and IL-2 analyzed. […] To confirm that these findings depended on BMP7 and not on some other secreted molecule, CD4^+ T cells were treated with BMP7 with or without follistatin and p38α, IFN-γ, and IL-2 expression evaluated. […]

CD4^+ T cells [6] = test: qPCR of p38α, IFN-γ, IL-2 in CD4+ T cells co-cultured with 344SQR cells plus follistatin; type: cell-based, mouse; conditions: 344SQR co-culture plus follistatin versus 344SQR without follistatin, 24 hours (FIG. 4G)
Source text: as §1
Co-culture experiments and treatments. Viable cells were counted with a hemocytometer (0.4% Trypan blue solution) and diluted to 40,000 cells per well in 24-wells plates. […] RNA was then isolated from RAW 264.7 or CD4^+ T cells and analyzed for p38α, IL-1α, IL-1β, TNF-α, RANTES, IL-2 and IFN-γ expression with qPCR.
as §3

B1: follistatin: BMP7 antagonist protein, natural inhibitor of BMP7 (R&D Systems, Catalog #769-FS-025) (protein, UniProt P19883 30-344, looked up)
Follistatin: GNCWLRQAKNGRCQVLYKTELSKEECCSTGRLSTSWTEEDVNDNTLFKWMIFNGGAPNCIPCKETCENVDCGPGKKCRMNKKNKPRCVCAPDCSNITWKGPVCGLDGKTYRNECALLKARCKEQPELEVQYQGRCKKTCRDVFCPGSSTCVVDQTNNAYCVTCNRICPEPASSEQYLCGNDGVTYSSACHLRKATCLLGRSIGLAYEGKCIKAKSCEDIQCTGGKKCLWDFKVGRGRCSLCDELCPDSKSDEPVCASDNATYASECAMKEAACSSGVLLEVKHSGSCNSISEDTEEEEEDEDQDYSFPISSILEW
For B1, the p38a expression (RAW 264.7 cells [1]; BMP7 plus follistatin compared with BMP7 alone) was “higher”, the SMAD1/5/9 activation (RAW 264.7 cells [1]; BMP7 plus follistatin versus BMP7 alone) was “lower” and the “expression of p38a and p38α-regulated cytokines and chemokines” value (RAW 264.7 cells [2]) was “higher expression”. The “levels of p38α, IL-1α, TNF-α, IL-1β, and RANTES” value (peritoneal macrophages [3]) was “higher levels”, the “expression of p38a and p38α-regulated cytokines and chemokines” value (peritoneal macrophages [4]) was “higher expression” and the “expression of p38α, IFN-γ, and IL-2” value (CD4^+ T cells [5]) was “higher expression”. The “expression of p38α, IFN-γ, and IL-2” value (CD4^+ T cells [6]) was “higher expression”.
